Positions count from the first letter of the chain named. In names and notes the source's numbering stands. Several values for one entry are separate records, joined by “and”; a condition that tells them apart may be missing. Equal entries are not always repeated.
Assays:
[1] = target: T1, Heat shock factor 1 (Hsf1) wild-type (human), Q00613; assay: SEC-MALS; with 10 mM DTT (+ Reductant); 50 uM injected; 25 mM HEPES/KOH pH 7.2, 150 mM KCl; Bio SEC-5 1000 A column; oligomer size from the median molar mass; conditions: remark: other sources report otherwise
T1 chain: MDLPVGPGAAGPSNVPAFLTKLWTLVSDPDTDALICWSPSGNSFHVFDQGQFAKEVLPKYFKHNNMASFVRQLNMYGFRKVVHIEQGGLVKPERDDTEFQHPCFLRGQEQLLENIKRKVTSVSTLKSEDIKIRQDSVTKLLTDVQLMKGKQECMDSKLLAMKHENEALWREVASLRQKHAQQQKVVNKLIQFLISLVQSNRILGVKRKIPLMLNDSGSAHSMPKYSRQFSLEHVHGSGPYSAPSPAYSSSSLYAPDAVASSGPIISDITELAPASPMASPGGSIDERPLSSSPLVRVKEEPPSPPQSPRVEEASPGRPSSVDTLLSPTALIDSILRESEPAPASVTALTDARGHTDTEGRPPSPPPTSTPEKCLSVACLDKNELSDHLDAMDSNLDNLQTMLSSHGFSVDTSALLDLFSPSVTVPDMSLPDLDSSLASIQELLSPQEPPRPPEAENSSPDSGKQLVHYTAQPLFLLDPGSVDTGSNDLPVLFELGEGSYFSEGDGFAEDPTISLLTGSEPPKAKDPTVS

[2] = target: T1, Heat shock factor 1 (Hsf1) wild-type …; assay: SEC-MALS; without reductant (oxidative conditions); 50 uM injected; 25 mM HEPES/KOH pH 7.2, 150 mM KCl; Bio SEC-5 1000 A column; oligomer size from the median molar mass; conditions: remark: other sources report otherwise
[3] = target: the molecule itself; assay: as above
[4] = target: the molecule itself; assay: SEC; analytical SEC at varying protein concentrations; change of elution volume with decreasing concentration

B1: Heat shock factor 1 (Hsf1) wild-type, Q00613 1-529 (natural protein)
chain: T1 chain
[1]
  stoichiometry N: 7 mer
[2]
  stoichiometry N: 9 mer and < 16 mer

B2: Hsf1 CS5 mutant (C36S/C103S/C153S/C373S/C378S) (natural protein, human, UniProt Q00613 1-529, looked up)
chain: T1 chain with C36S, C103S, C153S, C373S, C378S
notes: Heat shock factor 1 (Hsf1), human, all five cysteines replaced with serine; also called Hsf1 CS mutant; source: E. coli BL21(DE3), purified (Ni-NTA, HRV3C cleavage, HiTrap Q anion exchange, Superdex 200 gel filtration); not shown: GB1, N-terminal, cleaved; His6, N-terminal, cleaved
[3]
  stoichiometry N: ~5 mer

B3: Hsf1 C153S mutant (natural protein, human, UniProt Q00613 1-529, looked up)
chain: T1 chain with C153S
notes: Heat shock factor 1 (Hsf1), human, C153S in the leucine-zipper domain LZ1-3; source: E. coli BL21(DE3), purified (Ni-NTA, HRV3C cleavage, HiTrap Q anion exchange, Superdex 200 gel filtration); not shown: GB1, N-terminal, cleaved; His6, N-terminal, cleaved
[4]
  binding result: binds
